Article PMC10783490, “Biochemical and cellular insights into the Baz2B protein, a non-catalytic subunit of the chromatin remodeling complex” (Nucleic Acids Research, 2023)
Residue numbers refer to the chain shown, from its start. Values belong to the binder of their own block, whether it stands above or below them.

Legend:
TAM-AT1-AT2 Baz2B [1] = biological target: T1, TAM-AT1-AT2 Baz2B (Homo sapiens, UniProt Q9UIF8 721-884); assay: EMSA; EMSA: 20 mM HEPES pH 7.5, 30 mM KCl, 1 mM EDTA, 10 mM (NH4)2SO4, 1 mM DTT, 4 C, 10 nM probe; MST: same plus 0.1 ug/ml BSA, 5 nM probe, 25 C; GST-AT-hook and bromodomain EMSA as in cited refs; details: protein: recombinant; tags: His6; label: 5' Cy5
T1 sequence: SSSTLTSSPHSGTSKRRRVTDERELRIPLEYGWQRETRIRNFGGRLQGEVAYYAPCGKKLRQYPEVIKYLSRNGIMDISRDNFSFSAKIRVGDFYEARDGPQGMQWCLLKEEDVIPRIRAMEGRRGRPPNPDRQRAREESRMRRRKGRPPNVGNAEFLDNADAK

TAM-AT1-AT2 Baz2B [2] = biological target: T1, TAM-AT1-AT2 Baz2B; assay: MST; EMSA: 20 mM HEPES pH 7.5, 30 mM KCl, 1 mM EDTA, 10 mM (NH4)2SO4, 1 mM DTT, 4 C, 10 nM probe; MST: same plus 0.1 ug/ml BSA, 5 nM probe, 25 C; GST-AT-hook and bromodomain EMSA as in cited refs; details: protein: recombinant; tags: His6; label: 5' Cy5
BRD^Baz2B K2098N = biological target: T2, BRD^Baz2B K2098N (human, UniProt Q9UIF8 2054-2168, K2098N, fluorescent label (Monolith NT Protein Labelling Kit RED-NHS)); assay: MST; 100 nM fluorescently labelled (RED-NHS) BRD^Baz2B, peptide (H3 or H3K14ac) titrated; MST buffer 150 mM Tris-HCl, 50 mM NaCl, 10 mM MgCl2, pH 7.6, 0.0025% Pluronic, 200 ng/ul BSA; 25 C, 20% MST power; at least triplicate; details: both partners purified
T2 construct: bromodomain (BRD) of human Baz2B with a cancer-associated point mutation, made on pNIC28-Bsa4-BAZ2B-BRD; Same limits as m1; mutation found in multiple myeloma; source: E. coli BL21(DE3)-R3-pRARE2, purified (Ni-NTA, Sephadex 75)
T2 sequence: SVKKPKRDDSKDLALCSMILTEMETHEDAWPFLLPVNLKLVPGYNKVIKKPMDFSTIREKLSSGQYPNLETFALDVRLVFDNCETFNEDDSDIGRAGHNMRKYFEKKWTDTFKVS

BRD^Baz2B F2139C = biological target: T3, BRD^Baz2B F2139C (human, UniProt Q9UIF8 2054-2168, F2139C, fluorescent label (Monolith NT Protein Labelling Kit RED-NHS)); assay: as above; details: both partners purified
T3 construct: bromodomain (BRD) of human Baz2B with a cancer-associated point mutation, made on pNIC28-Bsa4-BAZ2B-BRD; Same limits as m1; mutation found in endometrial cancer; source: E. coli BL21(DE3)-R3-pRARE2, purified (Ni-NTA, Sephadex 75)
T3 sequence: T2 sequence with N45K, F86C

BRD^Baz2B T2138I = biological target: T4, BRD^Baz2B T2138I (human, UniProt Q9UIF8 2054-2168, T2138I, fluorescent label (Monolith NT Protein Labelling Kit RED-NHS)); assay: as above; details: both partners purified
T4 construct: bromodomain (BRD) of human Baz2B with a cancer-associated point mutation, made on pNIC28-Bsa4-BAZ2B-BRD; Same limits as m1; mutation found in multiple myeloma; source: E. coli BL21(DE3)-R3-pRARE2, purified (Ni-NTA, Sephadex 75)
T4 sequence: T2 sequence with N45K, T85I

BRD^Baz2B D2143N = biological target: T5, BRD^Baz2B D2143N (human, UniProt Q9UIF8 2054-2168, D2143N, fluorescent label (Monolith NT Protein Labelling Kit RED-NHS)); assay: as above; details: both partners purified
T5 construct: bromodomain (BRD) of human Baz2B with a cancer-associated point mutation, made on pNIC28-Bsa4-BAZ2B-BRD; Same limits as m1; mutation found in breast invasive carcinoma; source: E. coli BL21(DE3)-R3-pRARE2, purified (Ni-NTA, Sephadex 75)
T5 sequence: T2 sequence with N45K, D90N

[3] = biological target: T6, His6-BRD^Baz2B (bromodomain of human Baz2B, wild-type) (human, UniProt Q9UIF8 2054-2168, fluorescent label (Monolith NT Protein Labelling Kit RED-NHS)); assay: as above; details: both partners purified
T6 construct: bromodomain (BRD) of human Baz2B, from plasmid pNIC28-Bsa4-BAZ2B-BRD; also called BAZ2B-BRD; source: E. coli BL21(DE3)-R3-pRARE2, purified (Ni-NTA, Sephadex 75)
T6 sequence: T2 sequence with N45K

BRD^Baz2B L2073V = biological target: T7, BRD^Baz2B L2073V (human, UniProt Q9UIF8 2054-2168, L2073V, fluorescent label (Monolith NT Protein Labelling Kit RED-NHS)); assay: as above; details: both partners purified
T7 construct: bromodomain (BRD) of human Baz2B with a cancer-associated point mutation, made on pNIC28-Bsa4-BAZ2B-BRD; Same limits as m1; mutation found in pancreatic cancer (COSMIC/ICGC); source: E. coli BL21(DE3)-R3-pRARE2, purified (Ni-NTA, Sephadex 75)
T7 sequence: T2 sequence with L20V, N45K

BRD^Baz2B L2127V = biological target: T8, BRD^Baz2B L2127V (human, UniProt Q9UIF8 2054-2168, L2127V, fluorescent label (Monolith NT Protein Labelling Kit RED-NHS)); assay: as above; details: both partners purified
T8 construct: bromodomain (BRD) of human Baz2B with a cancer-associated point mutation, made on pNIC28-Bsa4-BAZ2B-BRD; Same limits as m1; mutation found in breast cancer; source: E. coli BL21(DE3)-R3-pRARE2, purified (Ni-NTA, Sephadex 75)
T8 sequence: T2 sequence with N45K, L74V

Binder: GGGGGGUCAUUUUUGGGGAAACCCUGUCUCUUUCC (structured_RNA) [pRNAmini]
Kd (TAM-AT1-AT2 Baz2B [1]): 0.137 µM | Kd (TAM-AT1-AT2 Baz2B [2]): 0.288 µM

Kd (BRD^Baz2B K2098N): 24 µM | Kd (BRD^Baz2B F2139C): 20 µM | Kd (BRD^Baz2B T2138I): 94 µM | Kd (BRD^Baz2B D2143N): 133 µM | Kd [3]: 16 µM | Kd (BRD^Baz2B L2073V): 78 µM | Kd (BRD^Baz2B L2127V): 30 µM
B1: H3K14ac peptide (Ac-TARKSTGGK(ac)APRKQL-NH2) (peptide)
peptide: Ac-TARKSTGGK(Ac)APRKQL-NH2
notes: N-terminal tail of histone H3, residues 6-20; also called acetylated H3 tail peptide; acetylated at K14 (K14ac) N-terminal H3 histone tail peptide; source: synthetic peptide, bought: alta Bioscience
